Laboratory results reported in the Immune Epitope Database (IEDB).

Experiments:
Test in all cases: IEDB peptide-MHC binding, purified MHC/competitive/radioactivity; filed as Kd, often an IC50 or EC50 that approximates it; ≥ and ≤ were set here for values at or beyond the usual limits of such assays
HLA-A*68:01 = molecular target: HLA-A*68:01
HLA-A*31:01 = molecular target: HLA-A*31:01
HLA-A*11:01 = molecular target: HLA-A*11:01
HLA-A*33:01 = molecular target: HLA-A*33:01
HLA-A*03:01 = molecular target: HLA-A*03:01
[1] = source organism: Vaccinia virus WR
[2] = source organism: Dengue virus 3 Martinique/1243/1999
[3] = source organism: SARS coronavirus Tor2
[4] = source organism: Dengue virus 1 Brazil/97-11/1997
[5] = source organism: Lassa virus Josiah
[6] = source organism: Dengue virus 2 Jamaica/1409/1983

Q: What does the source list for AAGIIILMEY?
A: Kd (HLA-A*68:01; [1]): 1200 nM; Kd (HLA-A*31:01; [1]): 1030 nM; Kd (HLA-A*11:01; [1]): 1340 nM; Kd (HLA-A*33:01; [1]): 7170 nM; Kd (HLA-A*03:01; [1]): 6280 nM

Q: With AARILSEKR as the sequence, how does the Kd (HLA-A*68:01; [1]) read?
A: 852 nM

Q: What about the Kd (HLA-A*31:01; [1]) of the same sequence?
A: 36.3 nM

Q: And the Kd (HLA-A*11:01; [1])?
A: 6080 nM

Q: What about the Kd (HLA-A*33:01; [1]) of the same sequence?
A: 1070 nM

Q: What about the Kd (HLA-A*03:01; [1]) of the same sequence?
A: ≥ 78000 nM

Q: AGLAFSIMK was tested. Which Kd (HLA-A*11:01; [2]) did it give?
A: 13.8 nM

Q: What does the source list for AIEPSGNNY?
A: Kd (HLA-A*68:01; [1]): ≥ 77700 nM; Kd (HLA-A*31:01; [1]): ≥ 77900 nM; Kd (HLA-A*11:01; [1]): 5790 nM; Kd (HLA-A*33:01; [1]): ≥ 77700 nM; Kd (HLA-A*03:01; [1]): ≥ 59600 nM

Q: AIVCRFDTR was tested. Which Kd (HLA-A*68:01; [3]) did it give?
A: 563 nM

Q: And the Kd (HLA-A*31:01; [3])?
A: 133 nM

Q: What about the Kd (HLA-A*11:01; [3]) of the same sequence?
A: 1210 nM

Q: What about the Kd (HLA-A*33:01; [3]) of the same sequence?
A: 329 nM

Q: And the Kd (HLA-A*03:01; [3])?
A: 4170 nM

Q: What does the source list for ALAYYNNSK?
A: Kd (HLA-A*68:01; [3]): 832 nM; Kd (HLA-A*31:01; [3]): 7570 nM; Kd (HLA-A*11:01; [3]): 29 nM; Kd (HLA-A*33:01; [3]): ≥ 45900 nM; Kd (HLA-A*03:01; [3]): 44.5 nM

Q: Which results are given for ALSTNHGHK?
A: Kd (HLA-A*68:01; [3]): 3050 nM; Kd (HLA-A*31:01; [3]): 8930 nM; Kd (HLA-A*11:01; [3]): 619 nM; Kd (HLA-A*33:01; [3]): ≥ 46500 nM; Kd (HLA-A*03:01; [3]): 30 nM

Q: Which Kd (HLA-A*31:01; [4]) does the source give for AMRCVGIGNR here?
A: 872 nM

Q: Which Kd (HLA-A*68:01; [5]) does the source give for AMSCDFNGGK here?
A: ≥ 26700 nM

Q: What about the Kd (HLA-A*31:01; [5]) of the same sequence?
A: ≥ 30000 nM

Q: And the Kd (HLA-A*11:01; [5])?
A: 273 nM

Q: What about the Kd (HLA-A*33:01; [5]) of the same sequence?
A: ≥ 24200 nM

Q: What about the Kd (HLA-A*03:01; [5]) of the same sequence?
A: 2000 nM

Q: What does the source list for ASLPTTIAK?
A: Kd (HLA-A*68:01; [3]): 2030 nM; Kd (HLA-A*31:01; [3]): 118 nM; Kd (HLA-A*33:01; [3]): ≥ 40300 nM

Q: For ASLPYGANK, which Kd (HLA-A*68:01; [3]) is on record?
A: 16500 nM

Q: And the Kd (HLA-A*31:01; [3])?
A: 514 nM

Q: What about the Kd (HLA-A*11:01; [3]) of the same sequence?
A: 111 nM

Q: And the Kd (HLA-A*33:01; [3])?
A: ≥ 52200 nM

Q: And the Kd (HLA-A*03:01; [3])?
A: 177 nM

Q: For AVQTKPGLFK, which Kd (HLA-A*11:01; [6]) is on record?
A: 37.9 nM

Q: And the Kd (HLA-A*03:01; [6])?
A: 16.6 nM

Q: CFPSTQRDY was tested. Which Kd (HLA-A*68:01; [1]) did it give?
A: ≥ 58400 nM

Q: What about the Kd (HLA-A*31:01; [1]) of the same sequence?
A: 9810 nM

Q: And the Kd (HLA-A*11:01; [1])?
A: 2510 nM

Q: What about the Kd (HLA-A*33:01; [1]) of the same sequence?
A: ≥ 77700 nM

Q: What about the Kd (HLA-A*03:01; [1]) of the same sequence?
A: 868 nM

Q: For DIVNEHDIK, which Kd (HLA-A*68:01; [1]) is on record?
A: 3670 nM

Q: What about the Kd (HLA-A*31:01; [1]) of the same sequence?
A: ≥ 77900 nM

Q: And the Kd (HLA-A*11:01; [1])?
A: ≥ 77900 nM

Q: What about the Kd (HLA-A*33:01; [1]) of the same sequence?
A: ≥ 77700 nM

Q: What about the Kd (HLA-A*03:01; [1]) of the same sequence?
A: ≥ 63200 nM

Q: What does the source list for DLDKVYEILK?
A: Kd (HLA-A*68:01; [1]): 1300 nM; Kd (HLA-A*31:01; [1]): 12000 nM; Kd (HLA-A*11:01; [1]): 751 nM; Kd (HLA-A*33:01; [1]): ≥ 24300 nM; Kd (HLA-A*03:01; [1]): 3350 nM

Q: EFCVDHPFIY was tested. Which Kd (HLA-A*68:01; [1]) did it give?
A: ≥ 54700 nM

Q: What about the Kd (HLA-A*31:01; [1]) of the same sequence?
A: ≥ 37600 nM

Q: And the Kd (HLA-A*11:01; [1])?
A: 11000 nM

Q: What about the Kd (HLA-A*33:01; [1]) of the same sequence?
A: ≥ 44400 nM

Q: And the Kd (HLA-A*03:01; [1])?
A: ≥ 70100 nM

Q: Which Kd (HLA-A*68:01; [2]) does the source give for EITHHAVSR here?
A: 24.1 nM

Q: What about the Kd (HLA-A*33:01; [2]) of the same sequence?
A: 89.8 nM

Q: For ETLGEKWKR, which Kd (HLA-A*68:01; [4]) is on record?
A: 69.2 nM

Q: And the Kd (HLA-A*33:01; [4])?
A: 13.4 nM

Q: Which Kd (HLA-A*11:01; source organism: Homo sapiens) does the source give for ETLTSVFQK here?
A: 11 nM

Q: FCNLSDAHK was tested. Which Kd (HLA-A*68:01; [5]) did it give?
A: 1050 nM

Q: And the Kd (HLA-A*31:01; [5])?
A: ≥ 77900 nM

Q: What about the Kd (HLA-A*11:01; [5]) of the same sequence?
A: ≥ 51000 nM

Q: What about the Kd (HLA-A*33:01; [5]) of the same sequence?
A: 4330 nM

Q: What about the Kd (HLA-A*03:01; [5]) of the same sequence?
A: ≥ 36200 nM

Q: Which results are given for FISDNKKEYK?
A: Kd (HLA-A*68:01; [1]): 11.3 nM; Kd (HLA-A*31:01; [1]): 118 nM; Kd (HLA-A*11:01; [1]): 47.5 nM; Kd (HLA-A*33:01; [1]): 1050 nM; Kd (HLA-A*03:01; [1]): 1880 nM
